Reference: patent publication US20140045742A1
Where no end group is shown, it is not given here.

B1: Ac-… (peptide)
peptide: Ac-TDAAGATAVVIA
B2: Ac-… (peptide)
peptide: Ac-SDAAGAMFLEAI
B3: Ac-… (peptide)
peptide: Ac-SEAAASMFLEAI
B4: Ac-… (peptide)
peptide: Ac-SEAAASTAVVIA
B5: Ac-… (peptide)
peptide: Ac-TEAAGATAVVIA
B6: Ac-… (peptide)
peptide: Ac-TEAAGAMFLEAIVM
B7: Ac-TAVVIA (peptide)
peptide: Ac-TAVVIA
B8: Ac-… (peptide)
peptide: Ac-TEAAGAMFFEAIPM
B9: fusion polypeptide FP-1 (protein)
chain: GRTEAAGAMFLEAIPMSGGGGSGGGGSGGGGTWQEWEQKITALLEQAQIQQEKNEYELQKLDKWASLWEWF
B10: fusion polypeptide FP-3 (protein)
chain: GKSGTEAAGAMFLEAIPMSGGGGSGGGGSGGGGTTWEAWDRAIAEYAARIEALIRAAQEQQERNEAALREL
B11: fusion polypeptide FP-2 (protein)
chain: GRGTEAAGAMFLEAIPMSTTWMEWDKEINNYTSLIHSLIEESQNQQEKNEQELL

Target: alpha1-antitrypsin, P01009
Test: in vitro association of the serpin-finger polypeptide with alpha1-antitrypsin

alpha1-antitrypsin, P01009, sequence (P01009 25-418 limits assumed): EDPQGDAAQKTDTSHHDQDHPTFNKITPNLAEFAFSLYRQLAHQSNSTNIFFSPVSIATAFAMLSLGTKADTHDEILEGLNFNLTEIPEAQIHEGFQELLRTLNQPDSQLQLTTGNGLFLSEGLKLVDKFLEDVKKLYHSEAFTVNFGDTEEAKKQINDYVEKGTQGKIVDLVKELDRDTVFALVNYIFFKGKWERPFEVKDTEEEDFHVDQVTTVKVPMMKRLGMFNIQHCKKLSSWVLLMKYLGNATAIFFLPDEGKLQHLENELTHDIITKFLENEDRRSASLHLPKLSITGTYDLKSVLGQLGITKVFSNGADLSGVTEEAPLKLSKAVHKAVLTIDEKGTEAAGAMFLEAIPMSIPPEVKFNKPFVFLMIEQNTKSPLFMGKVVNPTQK

Binder | in vitro association T1/2 [h]
B1 | 16
B2 | 16
B3 | 4
B4 | 1.4
B5 | 9.5
B6 | 10
B7 | 16
B8 | 10

Target: HIV HR1 peptide (heptad repeat 1) (HIV)
Test: SPR (BIAcore), HIV HR1 peptide immobilized on CM5 chip

Binder | Ka [M⁻¹] | Kd [pM] | koff [s⁻¹] | kon [M⁻¹ s⁻¹]
B9 | 6.29e+08 | 1590 | 0.000361 | 227000
B10 | 3.22e+10 | 31 | 3.07e-05 | 991000
B11 | 1.08e+10 | 92.4 | 0.000119 | 1.29e+06
